This is an account of results in paper PMC7851562 (2020).

Test [1] addresses coxsackievirus and adenovirus receptor (CAR), as used in SPR (UniProt P78310). Description: SPR; recombinant fiber knob protein over receptor; about 5,000 RU of DSG2-Fc amine coupled to a CM5 chip at 10 μl/min; in triplicate; CAR and CD46 surfaces as previously described (ref 36). A general note: In SPR one partner is held on a chip, and binding of the other changes the refractive index at the surface.

Test [2] concerns the target coxsackievirus and adenovirus receptor (CAR) on CHO-CAR cells (UniProt P78310).
The target in test [3] is T1, coxsackievirus and adenovirus receptor (CAR), as used in SPR (UniProt P78310 20-365).
T1 chain: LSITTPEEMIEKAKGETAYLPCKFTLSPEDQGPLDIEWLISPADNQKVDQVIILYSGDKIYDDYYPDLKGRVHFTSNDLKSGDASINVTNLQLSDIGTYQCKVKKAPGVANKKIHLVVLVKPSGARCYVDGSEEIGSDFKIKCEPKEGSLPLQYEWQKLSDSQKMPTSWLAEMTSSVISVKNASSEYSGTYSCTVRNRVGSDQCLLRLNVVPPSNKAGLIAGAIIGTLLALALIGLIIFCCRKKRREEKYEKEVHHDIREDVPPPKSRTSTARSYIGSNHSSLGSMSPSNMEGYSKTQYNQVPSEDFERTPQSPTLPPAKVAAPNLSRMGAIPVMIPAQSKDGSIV
Description: SPR.

Usually Kd stands for a measure of binding affinity in units of concentration. Usually koff stands for the rate constant with which the complex falls apart. High values mean a short-lived complex, low ones a long-lived complex.

Regarding “human adenovirus type 49 fiber knob protein (domain or fragment)”, in test [1], the Kd was determined as 190 nM. Moreover, the inhibition of HAdV-C5 transduction (luciferase) of CHO-CAR cells preincubated with recombinant HAdV-D49K in test [2] came out at 50%.

B1: human adenovirus type 49 fiber knob protein (domain or fragment)
chain: MRGSHHHHHHGSKKGDLVAWNKENDRRTLWTTPDPSPNCKVSEEKDSKLTLVLTKCGSQILASVSLLVVKGKFANINNKTNPGEDYKKFSVKLLFDANGKLLTGSSLDGNYWNYKNKDSVIGSPYENAVPFMPNSTAYPKIINNGTANPEDKKSAAKKTIVTNVYLGGDAAKPVATTISFNKETESNCVYSITFDFAWNKTYKNVPFDSSSLTFSYIAQDAEDKNE
On to B1, for which the koff in test [3] stood at 0.0012 s⁻¹.
